Measurements as given in patent publication US9662404B2, “Compositions and methods for the delivery of molecules into live cells” (The Texas A&M University System, priority 2013, dated 2017).
Ends that are not written are not given here.

Legend:
[1] = test system: HeLa cells expressing SNAPH2B; assay: Endosomal leakage efficiency with SNAP-Surface 488; conditions: 2.5 μM dTAT with 5 μM SNAP-Surface 488, 1 h
Procedure: HeLa cells were incubated with 5 μM SNAP-Surface® 488 for 1 h, washed and imaged. […] It should be noted that SNAP-Surface® 488 fluorescence is quenched (80%) before it reacts with the SNAP fusion tag.
HeLa cells were seeded in 8-well dishes, grown and washed as described in the prior section. Cells were then co-incubated with 5 M delivery peptide and with the cargo at the corresponding concentration for 1 h at 37° C. Cells were washed 3 times with PBS and nrL-15 and placed on the microscope. Images were acquired as described before. For transfection and expression of SNAP-H2B and TagCFP-mito, plasmids were mixed with Lipofectamine™ 2000 reagent in opti-MEM media and incubated at room temperature for 30 min. The DNA complex was added to previously seeded HeLa cells (80% confluent) on an 8-well dish and cells were kept at 37° C. for 24 h.

HeLa cells [2] = assay: Step-wise repeated delivery of DEAC-K9 and SNAP-Surface 488; type: cell-based; conditions: 5 μM dTAT + 5 μM DEAC-K9 1 h, then 5 μM dTAT + 5 μM SNAP-Surface 488 1 h
Procedure: To test this idea, the step-wise delivery of two different molecules (DEAC-K9 and SNAP-Surface® 488) was assessed. Cells were first incubated with dTAT (5 μM) and DEAC-K9 (5 μM) for 1 h. […] Twenty minutes later, cells were incubated with dTAT (5 μM) and SNAP-Surface® 488 (5 μM) for 1 h. […] Briefly, HeLa cells were first incubated with 5 μM dTAT and 5 μM DEAC-K9 for 1 h. Cells were then washed, incubated with 5 μM SNAP-Surface® 488 for 1 h and imaged.

HeLa cells [3] = assay: Cell proliferation, MTT assay; type: cell-based; conditions: 5 μM, 1 h; up to 36 h after incubation
Procedure: (§1) In order to determine cells that had compromised plasma membranes, cells were treated with SYTOX® Green (SYTOX® Blue in some cases) and Hoechst (Invitrogen, Carlsbad, Calif.). SYTOX® dyes are cell-impermeable and stain the DNA of cells with compromised plasma membranes. The Hoechst dye is cell permeable and stains the DNA of all cells. Images were acquired using the green and blue filter. The green and blue images were used to count cells with a blue or green stained nucleus. Image J was used to count the dead (green) and total cells (blue). Cytotoxicity was determined from the ratio of SYTOX® Green positive cells/total number of cells. An MTT-assay was performed to determine the effect of the peptide on cell proliferation. Cells were seeded in a 6-well dish, grown and washed as described above. One well from the dish was incubated with 5 μM dTAT at 37° C. for 1 h. A second well was left untreated and served as control. […] Cells were trypsinized and seeded into 96-well dishes containing 200 μL of DMEM. The cells were then allowed to attach to the bottom of the dish for 12 h. […] After the incubation each sample was mixed and the absorbance at 600 nm was measured. […] A second control consisted of cells treated with the delivery peptide but to which no MTT was added to subtract the contribution of TMR from the measured absorbance. The absorbance of the negative control was subtracted from all samples.

HeLa cells [4] = assay: Cell viability, SYTOX exclusion assay; type: cell-based
Procedure: as §1

[5] = test system: HeLa, Neuro-2a and HDF cells; assay: Cell proliferation, MTT assay in several cell types; type: cell-based; conditions: 5 μM, 1 h; up to 36 h after incubation
Procedure: FIG. 12 illustrates that cells treated with dTAT proliferate at a rate identical to untreated cells. HeLa, Neuro-2a and HDF cells were incubated with 5 μM dTAT for 1 h or left untreated. Proliferation was assessed using a MTT assay for up to 36 h after incubation (150,000 cells/experiment, experiments in triplicates, average and standard deviations represented).
In order to determine cells that had compromised plasma membranes, cells were treated with SYTOX® Green (SYTOX® Blue in some cases) and Hoechst (Invitrogen, Carlsbad, Calif.). SYTOX® dyes are cell-impermeable and stain the DNA of cells with compromised plasma membranes. The Hoechst dye is cell permeable and stains the DNA of all cells. Images were acquired using the green and blue filter. The green and blue images were used to count cells with a blue or green stained nucleus. Image J was used to count the dead (green) and total cells (blue). Cytotoxicity was determined from the ratio of SYTOX® Green positive cells/total number of cells. […] After the incubation each sample was mixed and the absorbance at 600 nm was measured. […] A second control consisted of cells treated with the delivery peptide but to which no MTT was added to subtract the contribution of TMR from the measured absorbance. The absorbance of the negative control was subtracted from all samples.

EGFP = EGFP (Aequorea victoria, UniProt P42212, F64L/H231L/S65T); conditions: EGFP 1 μM, dTAT 5 μM, excitation 488 nm
Procedure: Fluorescence emission spectra were obtained using an SLM-8000C fluorometer upgraded with the phoenix package (ISS, Champaign, Ill.) and Vinci v.1.6 PC software (ISS). The experiments were conducted using a quartz cuvette at room temperature. The samples were excited at 488 nm (slit width=1 mm) and the fluorescence emission was scanned from 500 to 650 nm (slit width=1 mm). All samples (EGFP (1 μM) and dTAT (5 μM)) were prepared using nrL-15.

[6] = test system: HeLa, NIH 3T3, COLO 316 and HaCaT; conditions: 5 μM
Procedure: The TAT, dTAT and acTAT peptides were incubated for 1 h with several cell lines and internalization was assessed by fluorescence microscopy. […] See also FIG. 5. […] The cell lines HeLa, NIH 3T3, COLO 316 and HaCaT were incubated with 5 μM dTAT for 1 h, washed and imaged. […] After imaging, cells were incubated at 37° C. in a humidified atmosphere containing 5% CO2 for 24 h, washed and imaged again. […] Cell viability was assessed by exclusion of the cell-impermeable nuclear stain SYTOX® Blue at both 1 h and 24 h time point. […] Inverted monochrome (black=fluorescence signal, white-no signal) fluorescence images were made of HeLa cells incubated with 10 or 20 μM of TAT for 1 h.
Live cells from different lines (HeLa, HaCat, NIH 3T3) were grown in Dulbecco's […] (DMEM) (Fisher) supplemented with 10% fetal bovine serum (FBS) (Fisher) and kept at 37° C. in a humidified atmosphere containing 5% CO2. […] Images were acquired using bright field imaging and three standard fluorescence filter sets: CFP (Ex=436±10 nm/Em=480±20 nm), RFP (Ex=560±20 nm/Em=630±35 nm), and FITC (Ex=488±10 nm/Em=520±20 nm). The fluorescence intensities of different cells were measured with the SlideBook 4.2 software (Olympus, Center Valley, Pa.) and the average fluorescence intensity was determined for each condition. […]

(CK(TMR)TAT)2 (CK(TMR)RKKRRQRRRG; also: dimer) [dTAT]
cytosolic release [1]: does not result in significant cytosolic release
repeatability of dTAT-mediated delivery (HeLa cells [2]): can be repeated
cell growth versus untreated cells (HeLa cells [3]): grow at the same rate as untreated cells
effect on cell viability (HeLa cells [4]; 5 μM): does not affect cell viability
fraction of dead cells (HeLa cells [4]; 5 μM dTAT, 1 h incubation, 1, 24 and 48 h after incubation): below 5%
proliferation of treated versus untreated cells [5]: nearly identical proliferation patterns
binding to EGFP (EGFP): does not bind to EGFP
cellular localization of fluorescence signal ([6]; 1 h): in the cytosol and nucleus of cells
plasma membrane integrity, SYTOX Blue staining ([6]; 1 h incubation, 1 h and 24 h time points): not stained with SYTOX® Blue
